Assay results as given in paper doi:10.1101/563890 (bioRxiv, 2019).

Target: CXCL12 (UniProt P48061-2 22-89)
Assay: MST

CXCL12, sequence (P48061 22-89): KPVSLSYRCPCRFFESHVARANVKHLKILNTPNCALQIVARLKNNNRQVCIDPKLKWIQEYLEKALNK

B1: 6His-tagged full-length HMGB1 (residues 1-214), labelled with NT647 (natural protein, UniProt P63159 1-215, looked up)
chain: MGKGDPKKPRGKMSSYAFFVQTCREEHKKKHPDASVNFSEFSKKCSERWKTMSAKEKGKFEDMAKADKARYEREMKTYIPPKGETKKKFKDPNAPKRPPSAFFLFCSEYRPKIKGEHPGLSIGDVAKKLGEMWNNTAADDKQPYEKKAAKLKEKYEKDIAAYRAKGKPDAAKKGVVKAEKSKKKKEEEDDEEDEEDEEEEEEEEDEDEEEDDDDE
modifications: non-covalently labelled with the NT647 fluorescence dye
Q: B1 was tested. Which Kd did it give?
A: 4 ± 0.4 µM
